Consider 24 molecules from patent US20210061914A1 (published 2021).

Substitutions are numbered along the chain they refer to. A value given as a limit tells only on which side of the number the result lay.

The labels stand for the following.
B1: scFv G8-P1A04 (scFv, V domains shown)
VH: QVQLVQSGAEVKKPGASVKVSCKASGYPFIGQYLHWVRQAPGQGLEWMGIINPSGDSATYAQKFQGRVTMTRDTSTSTVYMELSSLRSEDTAVYYCARDLSYYYGMDVWGQGTTVTVSS
VL: DIQMTQSPSSLSASVGDRVTITCWASQGISSYLAWYQQKPGKAPKLLIYAASSLQSGVPSRFSGSGSGTDFTLTISSLQPEDFATYYCQQSYNTPWTFGPGTKVDIK
notes: scFv
B2: scFv G8-P1C11 (scFv, V domains shown)
VH: QVQLVQSGAEVKKPGASVKVSCKASGGTLSSYPINWVRQAPGQGLEWMGWISTYSGHADYAQKLQGRVTMTRDTSTSTVYMELSSLRSEDTAVYYCARSYDYGDYLNFDYWGQGTLVTVSS
VL: B1 VL with W24Q, G28D, S31N, A34N, N93S, T94I, W96P, P100G
notes: scFv
B3: scFv G8-P1D02 (scFv, V domains shown)
VH: EVQLLESGGGLVQPGGSLRLSCAASGFTFSSYWMSWVRQAPGKGLEWVSSISGRGDNTYYADSVKGRFTISRDNSKNTLYLQMNSLRAEDTAVYYCARASGSGYYYYYGMDVWGQGTTVTVSS
VL: B1 VL with W24Q, G28D, S31N, A34N, N93S, T94A, W96Y, P100G, D105E
notes: scFv
B4: scFv G8-P1B03 (scFv, V domains shown)
VH: EVQLLESGGGLVQPGGSLRLSCAASGFTFSDYYMSWVRQAPGKGLEWVSGINWNGGSTGYADSVKGRFTISRDNSKNTLYLQMNSLRAEDTAVYYCARVEQGYDIYYYYYMDVWGKGTTVTVSS
VL: B1 VL with W24R, G28S, A34N, A50K, Q55E, N93S, T94A, W96Y
notes: scFv
B5: scFv G8-P1A03 (scFv, V domains shown)
VH: QVQLVQSGAEVKKPGASVKVSCKASGGTFSRSAITWVRQAPGQGLEWMGWINPNSGATNYAQKFQGRVTMTRDTSTSTVYMELSSLRSEDTAVYYCARDDYGDYVAYFQHWGQGTLVTVSS
VL: DIQMTQSPSSLSASVGDRVTITCRASQSITSYLNWYQQKPGKAPKLLIYDASNLETGVPSRFSGSGSGTDFTLTISSLQPEDFATYYCQQNYNSVTFGQGTKLEIK
notes: scFv
B6: scFv G8-P1A06 (scFv, V domains shown)
VH: QVQLVQSGAEVKKPGASVKVSCKASGYTFTNYYMHWVRQAPGQGLEWMGWMNPIGGGTGYAQKFQGRVTMTRDTSTSTVYMELSSLRSEDTAVYYCARVYDFWSVLSGFDIWGQGTLVTVSS
VL: DIQMTQSPSSLSASVGDRVTITCRASQAISNSLAWYQQKPGKAPKLLIYAASTLQSGVPSRFSGSGSGTDFTLTISSLQPEDFATYYCGQSYSTPPTFGQGTKLEIK
notes: scFv
B7: scFv R3G10-P4E07 (scFv, V domains shown)
VH: QVQLVQSGAEVKKPGSSVKVSCKASGYTFTGYYMHWVRQAPGQGLEWMGRISPSDGSTTYAPKFQGRVTITADESTSTAYMELSSLRSEDTAVYYCARDMGDAFDIWGQGTTVTVSS
VL: not shown
notes: scFv
B8: scFv R3G10-P1B07 (scFv, V domains shown)
VH: QVQLVQSGAEVKKPGASVKVSCKASGYTFTSYYMHWVRQAPGQGLEWMGIIHPGGGTTSYAQKFQGRVTMTRDTSTSTVYMELSSLRSEDTAVYYCARDKVYGDGFDPWGQGTLVTVSS
VL: DIQMTQSPSSLSASVGDRVTITCRASQSISRWLAWYQQKPGKAPKLLIFDASRLQSGVPSRFSGSGSGTDFTLTISSLQPEDFATYYCQQAEAFPYTFGQGTKVEIK
notes: scFv
B9: scFv R3G10-P2G11 (scFv, V domains shown)
VH: QVQLVQSGAEVKKPGASVKVSCKASGGTFSTHDINWVRQAPGQGLEWMGVINPSGGSAIYAQKFQGRVTMTRDTSTSTVYMELSSLRSEDTAVYYCARDRGYSYGYFDYWGQGTLVTVSS
VL: B8 VL with S28D, W32Y, F49Y, R53N, Q55E, S56T, E92N, A93S, Y96R
notes: scFv
B10: scFv R3G10-P1H01 (scFv, V domains shown)
VH: QVQLVQSGAEVKKPGASVKVSCKASGYTFTGYYMHWVRQAPGQGLEWMGMIGPSDGSTSYAQKFQGRVTMTRDTSTSTVYMELSSLRSEDTAVYYCARGVGNLDYWGQGTLVTVSS
VL: B6 VL with A28S, S32Y, A34N, T53S, G89H, S91T, P96L, L104V
notes: scFv
B11: scFv R3G10-P4D10 (scFv, V domains shown)
VH: B10 VH with M34L, G99D, V100G, G101D, N102A, L103F, Y105I, L111M
VL: B1 VL with W24R, Y32W, A50D, S53N, Q55E, S56T, N93S, W96L, P100G, D105E
notes: scFv
B12: scFv R3G10-P1H08 (scFv, V domains shown)
VH: QVQLVQSGAEVKKPGASVKVSCKASGVTFSTSAISWVRQAPGQGLEWMGWISPYNGNTDYAQMLQGRVTMTRDTSTSTVYMELSSLRSEDTAVYYCARDAHQYYDFWSGYYSGTYYYGMDVWGQGTTVTVSS
VL: B6 VL with A28G, S32Y, A50S, T53N, G89Q, S91A, T94F, P96W, L104V
notes: scFv
B13: scFv R3G10-P4C05 (scFv, V domains shown)
VH: B10 VH with M50I, S59T, G99A, V100E, G101N, N102G, L103M, Y105V, L111T
VL: B1 VL with W24R, G28R, A34N, A50S, S53T, N93S, W96F
notes: scFv
B14: scFv R3G10-P1A07 (scFv, V domains shown)
VH: EVQLLESGGGLVKPGGSLRLSCAASGFTFSSYWMSWVRQAPGKGLEWVSGISARSGRTYYADSVKGRFTISRDDSKNTLYLQMNSLKTEDTAVYYCARDQDTIFGVVITWFDPWGQGTLVTVSS
VL: B6 VL with A28G, S32Y, T53S, S56G, G89Q, S91Y, Y92F, S93T, P96Y
notes: scFv
B15: scFv R3G10-P5A08 (scFv, V domains shown)
VH: QVQLVQSGAEVKKPGSSVKVSCKASGGTFNNFAISWVRQAPGQGLEWMGGIIPIFDATNYAQKFQGRVTFTADESTSTAYMELSSLRSEDTAVYYCARGEYSSGFFFVGWFDLWGRGTQVTVSS
VL: not shown
notes: scFv
B16: scFv R3G10-P4A02 (scFv, V domains shown)
VH: QVQLVQSGAEVKKPGASVKVSCKASGYTLSYYYMHWVRQAPGQGLEWMGMIGPSDGSTSYAQRFQGRVTMTRDTSTGTVYMELSSLRSEDTAVYYCARDTGDHFDYWGQGTLVTVSS
VL: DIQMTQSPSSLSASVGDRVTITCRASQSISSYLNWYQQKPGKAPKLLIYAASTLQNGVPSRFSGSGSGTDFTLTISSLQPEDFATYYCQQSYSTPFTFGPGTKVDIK
notes: scFv
B17: scFv R3G10-P4G06 (scFv, V domains shown)
VH: B16 VH
VL: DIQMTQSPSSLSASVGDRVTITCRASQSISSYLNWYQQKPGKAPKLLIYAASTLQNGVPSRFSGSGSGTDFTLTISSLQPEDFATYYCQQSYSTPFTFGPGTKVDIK
notes: scFv; printed VH and VL equal those of R3G10-P4A02
B18: scFv R3G10-P3E04 (scFv, V domains shown)
VH: QVQLVQSGAEVKKPGASVKVSCKASGNTFIGYYVHWVRQAPGQGLEWVGIINPNGGSISYAQKFQGRVTMTRDTSTSTVYMELSSLRSEDTAVYYCARGSGDPNYYYYYGLDVWGQGTTVTVSS
VL: DIQMTQSPSSLSASVGDRVTITCQASQDISNYLNWYQQKPGKAPKLLIYAASNLQSGVPSRFSGSGSGTDFTLTISSLQPEDFATYYCQQANSLPYTFGQGTKVEIK
notes: scFv
B19: scFv R3G10-P1E12 (scFv, V domains shown)
VH: B10 VH with T28I, G99E, V100D, G101D, N102S, L103M, Y105V, Q108K, L111T
VL: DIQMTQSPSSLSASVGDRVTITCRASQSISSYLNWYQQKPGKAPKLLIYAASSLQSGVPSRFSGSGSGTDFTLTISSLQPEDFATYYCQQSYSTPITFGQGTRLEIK
notes: scFv
B20: scFv R3G10-P4E12 (scFv, V domains shown)
VH: B10 VH with K63R, G99E, V100E, G101D, N102G, L103M, Y105V, L111T
VL: B6 VL with A28G, N31T, S32Y, A50D, T53S, G89Q, S91Y, T94Y, P96W, K103R
notes: scFv
B21: scFv R3G10-P4D04 (scFv, V domains shown)
VH: QVQLVQSGAEVKKPGASVKVSCKASGYTFTGYYVHWVRQAPGQGLEWMGIIAPSDGSTNYAQKFQGRVTMTRDTSTSTVYMELSSLRSEDTAVYYCARDPGGYMDVWGKGTTVTVSS
VL: B5 VL with T30S, N34A, N53K, N91S, N93G, S94V, V95P
notes: scFv
B22: scFv R3G10-P1F06 (scFv, V domains shown)
VH: B10 VH with T30I, G99D, V100S, G101S, N102G, Y105P
VL: B18 VL with Q24R, D28S, A50K, N53S, Q55E, A91S, N92Y, S93I, L94I, V104L
notes: scFv
B23: scFv R3G10-P2C04 (scFv, V domains shown)
VH: QVQLVQSGAEVKKPGASVKVSCKASGGTFSNSIINWVRQAPGQGLEWMGWMNPNSGNTNYAQKFQGRVTMTRDTSTSTVYMELSSLRSEDTAVYYCAREQWPSYWYFDLWGRGTLVTVSS
VL: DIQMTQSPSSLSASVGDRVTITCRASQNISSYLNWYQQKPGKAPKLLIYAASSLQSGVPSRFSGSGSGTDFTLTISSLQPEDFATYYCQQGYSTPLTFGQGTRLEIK
notes: scFv
B24: scFv R3G10-P5C08 (scFv, V domains shown)
VH: QVQLVQSGAEVKKPGASVKVSCKASGYNFTGYYMHWVRQAPGQGLEWMGIIAPSDGSTNYAQKFQGRVTMTRDTSTSTVYMELSSLRSEDTAVYYCARETGDDAFDIWGQGTMVTVSS
VL: not shown
notes: scFv

The first test concerns the target HLA-A*02:01_… (HLA-PEPTIDE target G8), soluble (human, enzymatically biotinylated (BirA) for screening and BLI). The experiment in a line: scFv PPE ELISA. For orientation: In an ELISA, binding on a coated surface is turned into a signal by an enzyme label.
B1: the “fold selective binding, target pHLA vs minipool of negative control pHLAs” value (“fold selective binding, target pHLA” for short) is at least 3 fold. On the same count and under the same terms, as for B2, the figure is at least 3 fold; as for B3, at least 3 fold; as for B4, at least 3 fold. Take B5: the “fold selective binding, target pHLA” value was at least 3 fold. As to B6, the “fold selective binding, target pHLA” value was at least 3 fold.

For a further test, the target named is HLA-A*01:01_… (HLA-PEPTIDE target G10), soluble (human, enzymatically biotinylated (BirA)). The experiment in a line: scFv PPE ELISA.
Consider B7, for which the “fold selective binding, target pHLA” value was at least 3 fold. Still for that read-out and setting: as for B8, the figure is at least 3 fold. Regarding B9, the “fold selective binding, target pHLA” value was at least 3 fold. On the same count and under the same terms, as for B10, the figure is at least 3 fold; as for B11, at least 3 fold; as for B12, at least 3 fold.

On to B13, for which the “fold selective binding, target pHLA” value was at least 3 fold. With B14, the “fold selective binding, target pHLA” value was at least 3 fold. B15: the “fold selective binding, target pHLA” value is at least 3 fold. Same read-out and setting: as for B16, the figure is at least 3 fold; as for B17, at least 3 fold; as for B18, at least 3 fold. Same read-out and setting: as for B19, the figure is at least 3 fold; as for B20, at least 3 fold. The same measure, in the same setting: as for B21, the figure is at least 3 fold; as for B22, at least 3 fold. Regarding B23, the “fold selective binding, target pHLA” value is at least 3 fold. On the same count and under the same terms, as for B24, the figure is at least 3 fold.
